In paper PMC8927147, “Global profiling of regulatory elements in the histone benzoylation pathway” (Nature Communications, 2022):

T1: H3K14bz peptide
T1 chain: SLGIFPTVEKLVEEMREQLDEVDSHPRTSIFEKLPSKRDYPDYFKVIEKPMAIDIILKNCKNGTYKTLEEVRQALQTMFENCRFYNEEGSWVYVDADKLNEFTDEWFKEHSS

T2: H3K27bz peptide
T2 chain: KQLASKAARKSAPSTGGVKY


How the values were obtained:
H3K14bz peptide = molecular target: T1, H3K14bz peptide; assay: ITC; conditions: chain shown with the change
H3K27bz peptide = molecular target: T2, H3K27bz peptide; assay: ITC; conditions: chain shown with the change

Binder | Kd (H3K14bz peptide) [µM] | Kd (H3K27bz peptide) [µM]
TARKSTGGKAPRKQLASY [Sth1BD, P32597 A1329C] | 187 | –
Sas5_(YEATS), Q99314 K64P (protein) DHSIEVTFRVKTQQVIIPEQNIRGNELPLRRWQMELLMLDATGKEVEPTILSKCIYHLHSSFPQPKRRLNSLPFFIKETGWGEFNLKIECFFIGNAGKFSIEHDLTFEDDAYAVDYTVDVPHEFSHLNSELSKYFDLP | – | 31.1
Sas5_(YEATS), Q99314 L30H (protein) DHSIEVTFRVKTQQVIIPEQNIRGNELPHRRWQMELLMLDATGKEVEPTILSKCIYHLHSSFKQPKRRLNSLPFFIKETGWGEFNLKIECFFIGNAGKFSIEHDLTFEDDAYAVDYTVDVPHEFSHLNSELSKYFDLP | – | 369
